# In the supplement of paper PMC10567573:
# B1: TRIM15 (parent)
# chain: QSSGKILLCPLCQEEEQAETPMAP
# Variants of: B1
# Assay: protein stability index of a GFP-peptide fusion (GPS, HEK-293T) (PSI 1-6); higher = more stable
# Conditions: c terminus: a fixed tail appended
# 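Further: lentivirally expressed fusions sorted by FACS into six bins by GFP to DsRed ratio, PSI derived from sequencing read proportions per bin multiplied by bin number.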
row,Variant,protein stability index
1,QSSGKILLCPLCQEEEQAETCMAP [P21C],3.94
2,QSSGKILLCPLCQEEEQAETVMAP [P21V],3.73
3,QSSGKILLCPLCQEEEQAETQMAP [P21Q],3.39
4,QSSGKILLCPLCQEEEQAETGMAP [P21G],3.19
5,QSSGKILLCPLCQEEEQAETMMAP [P21M],2.45
6,QSSGKILLCPLCQEEEQAETIMAP [P21I],2.88
7,QSSGKILLCPLCQEEEQAETFMAP [P21F],3.13
8,QSSGKILLCPLCQEEEQAETRMAP [P21R],1.83
9,QSSGKILLCPLCQEEEQAETYMAP [P21Y],2.68
10,QSSGKILLCPLCQEEEQAETLMAP [P21L],2.86
11,QSSGKILLCPLCQEEEQAETTMAP [P21T],3.16
12,QSSGKILLCPLCQEEEQAETNMAP [P21N],3.85
13,QSSGKILLCPLCQEEEQAETHMAP [P21H],2.98
14,QSSGKILLCPLCQEEEQAETAMAP [P21A],3
15,QSSGKILLCPLCQEEEQAETKMAP [P21K],2.43
16,QSSGKILLCPLCQEEEQAETDMAP [P21D],3.93
17,QSSGKILLCPLCQEEEQAGTPMAP [E19G],3.09
18,QSSGKILLCPLCQEEEQATTPMAP [E19T],3.09
19,QSSGKILLCPLCQEEEQAYTPMAP [E19Y],2.96
20,QSSGKILLCPLCQEEEQAQTPMAP [E19Q],2.61
21,QSSGKILLCPLCQEEEQAKTPMAP [E19K],3.94
22,QSSGKILLCPLCQEEEQAWTPMAP [E19W],1.52
23,QSSGKILLCPLCQEEEQACTPMAP [E19C],2
24,QSSGKILLCPLCQEEEQASTPMAP [E19S],2.51

row,Variant,protein stability index
1,QSSGKILLCPLCQEEEQAMTPMAP [E19M],2.19
2,QSSGKILLCPLCQEEEQAFTPMAP [E19F],2.06
3,QSSGKILLCPLCQEEEQAATPMAP [E19A],3.12
4,QSSGKILLCPLCQEEEQAPTPMAP [E19P],2.34
5,QSSGKILLCPLCQEEEQARTPMAP [E19R],2.99
6,QSSGKILLCPLCQEEEQAITPMAP [E19I],2.77
7,QSSGKILLCPLCQEEEQANTPMAP [E19N],2.87
8,QSSGKILLCPLCQEEEQAETPMYP [A23Y],2.94
9,QSSGKILLCPLCQEEEQAETPMFP [A23F],3.25
10,QSSGKILLCPLCQEEEQAETPMMP [A23M],3.69
11,QSSGKILLCPLCQEEEQAETPMEP [A23E],4.61
12,QSSGKILLCPLCQEEEQAETPMHP [A23H],3.67
13,QSSGKILLCPLCQEEEQAETPMTP [A23T],3.9
14,QSSGKILLCPLCQEEEQAETPMKP [A23K],3.63
15,QSSGKILLCPLCQEEEQAETPMDP [A23D],3.96
16,QSSGKILLCPLCQEEEQAETPMGP [A23G],3.52
17,QSSGKILLCPLCQEEEQAETPMNP [A23N],3.5
18,QSSGKILLCPLCQEEEQAETPMIP [A23I],2.86
19,QSSGKILLCPLCQEEEQAETPMCP [A23C],3.71
20,QSSGKILLCPLCQEEEQAETPMSP [A23S],3.86
21,QSSGKILLCPLCQEEEQAETPMQP [A23Q],3.21
22,QSSGKILLCPLCQEEEQAETPMRP [A23R],2.6
23,QSSGKILLCPLCQEEEQAETPMLP [A23L],2.97
24,QSSGKILLCPLCQEEEQAETPMVP [A23V],4.12

row,Variant,protein stability index
1,QSSGKILLCPLCQEEEQAETPMWP [A23W],2.91
2,QSSGKILLCPLCQEEEQDETPMAP [A18D],3.76
3,QSSGKILLCPLCQEEEQGETPMAP [A18G],2.73
4,QSSGKILLCPLCQEEEQLETPMAP [A18L],3.25
5,QSSGKILLCPLCQEEEQPETPMAP [A18P],4.04
6,QSSGKILLCPLCQEEEQIETPMAP [A18I],3.98
7,QSSGKILLCPLCQEEEQEETPMAP [A18E],3.34
8,QSSGKILLCPLCQEEEQCETPMAP [A18C],3.33
9,QSSGKILLCPLCQEEEQHETPMAP [A18H],3.29
10,QSSGKILLCPLCQEEEQYETPMAP [A18Y],2.89
11,QSSGKILLCPLCQEEEQMETPMAP [A18M],3.1
12,QSSGKILLCPLCQEEEQFETPMAP [A18F],2.19
13,QSSGKILLCPLCQEEEQTETPMAP [A18T],3.61
14,QSSGKILLCPLCQEEEQNETPMAP [A18N],3.44
15,QSSGKILLCPLCQEEEQSETPMAP [A18S],3.74
16,QSSGKILLCPLCQEEERAETPMAP [Q17R],2.76
17,QSSGKILLCPLCQEEEGAETPMAP [Q17G],3.74
18,QSSGKILLCPLCQEEEYAETPMAP [Q17Y],2.87
19,QSSGKILLCPLCQEEEPAETPMAP [Q17P],4.21
20,QSSGKILLCPLCQEEEVAETPMAP [Q17V],2.82
21,QSSGKILLCPLCQEEEMAETPMAP [Q17M],3.02
22,QSSGKILLCPLCQEEESAETPMAP [Q17S],3.67
23,QSSGKILLCPLCQEEEEAETPMAP [Q17E],2.95
24,QSSGKILLCPLCQEEEKAETPMAP [Q17K],3.29

row,Variant,protein stability index
1,QSSGKILLCPLCQEEEIAETPMAP [Q17I],2.88
2,QSSGKILLCPLCQEEETAETPMAP [Q17T],3.63
3,QSSGKILLCPLCQEEEHAETPMAP [Q17H],3.05
4,QSSGKILLCPLCQEEEFAETPMAP [Q17F],2.55
5,QSSGKILLCPLCQEEENAETPMAP [Q17N],3.49
6,QSSGKILLCPLCQEEEDAETPMAP [Q17D],3.38
7,QSSGKILLCPLCQEEEQAETPMAL [P24L],3.09
8,QSSGKILLCPLCQEEEQAETPMAM [P24M],3.31
9,QSSGKILLCPLCQEEEQAETPMAY [P24Y],2.68
10,QSSGKILLCPLCQEEEQAETPMAH [P24H],3.88
11,QSSGKILLCPLCQEEEQAETPMAS [P24S],3.53
12,QSSGKILLCPLCQEEEQAETPMAA [P24A],4
13,QSSGKILLCPLCQEEEQAETPMAE [P24E],4.29
14,QSSGKILLCPLCQEEEQAETPMAG [P24G],3.81
15,QSSGKILLCPLCQEEEQAETPMAI [P24I],3.85
16,QSSGKILLCPLCQEEEQAETPMAD [P24D],3.79
17,QSSGKILLCPLCQEEEQAETPMAK [P24K],3.17
18,QSSGKILLCPLCQEEEQAETPMAF [P24F],3.25
19,QSSGKILLCPLCQEEEQAETPMAC [P24C],2.47
20,QSSGKILLCPLCQEEEQAETPMAQ [P24Q],3.41
21,QSSGKILLCPLCQEEEQAETPMAR [P24R],1.71
22,QSSGKILLCPLCQEEEQAETPMAT [P24T],3.48
